Results from publication PMC9108619.

Molecular target: T1, UPF2 (endogenous), Q9HAU5
T1 chain: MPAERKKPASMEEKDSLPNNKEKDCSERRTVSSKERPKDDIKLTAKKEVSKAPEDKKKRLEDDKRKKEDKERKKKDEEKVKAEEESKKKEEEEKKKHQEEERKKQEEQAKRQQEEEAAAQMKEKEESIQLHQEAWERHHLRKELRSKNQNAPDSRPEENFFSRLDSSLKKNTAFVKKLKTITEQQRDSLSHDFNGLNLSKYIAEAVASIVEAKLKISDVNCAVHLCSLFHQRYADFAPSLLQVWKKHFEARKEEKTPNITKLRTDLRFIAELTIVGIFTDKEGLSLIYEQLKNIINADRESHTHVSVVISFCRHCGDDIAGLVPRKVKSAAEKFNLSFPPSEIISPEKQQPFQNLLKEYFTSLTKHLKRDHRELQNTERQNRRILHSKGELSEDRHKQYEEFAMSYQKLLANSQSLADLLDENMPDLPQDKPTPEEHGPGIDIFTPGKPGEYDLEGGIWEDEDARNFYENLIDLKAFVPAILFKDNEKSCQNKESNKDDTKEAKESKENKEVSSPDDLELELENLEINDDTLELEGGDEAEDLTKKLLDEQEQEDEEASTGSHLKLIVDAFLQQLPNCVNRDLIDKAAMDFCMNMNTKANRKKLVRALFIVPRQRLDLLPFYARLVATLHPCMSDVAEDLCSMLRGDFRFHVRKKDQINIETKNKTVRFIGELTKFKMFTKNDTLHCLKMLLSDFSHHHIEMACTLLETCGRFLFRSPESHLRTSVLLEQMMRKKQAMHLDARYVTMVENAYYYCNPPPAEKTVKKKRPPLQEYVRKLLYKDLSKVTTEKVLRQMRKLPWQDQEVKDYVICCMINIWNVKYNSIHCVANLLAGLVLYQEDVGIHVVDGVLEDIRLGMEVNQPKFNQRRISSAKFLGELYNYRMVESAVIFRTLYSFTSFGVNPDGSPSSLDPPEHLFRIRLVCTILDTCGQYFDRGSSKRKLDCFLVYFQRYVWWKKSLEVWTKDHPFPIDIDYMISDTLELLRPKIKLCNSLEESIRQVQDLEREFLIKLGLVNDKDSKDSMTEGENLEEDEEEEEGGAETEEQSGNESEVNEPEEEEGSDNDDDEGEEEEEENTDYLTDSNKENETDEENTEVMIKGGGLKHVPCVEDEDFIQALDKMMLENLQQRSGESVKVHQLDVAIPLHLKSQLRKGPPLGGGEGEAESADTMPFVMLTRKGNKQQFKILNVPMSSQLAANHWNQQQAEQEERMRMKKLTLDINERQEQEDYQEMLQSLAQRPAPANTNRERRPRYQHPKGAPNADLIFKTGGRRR
Test: TurboID proximity labelling, streptavidin enrichment, mass spectrometry
Conditions: chain shown with the change; UPF3B KO + UPF3A KD cells; n = 3 biologically independent samples; read off a plot

B1: FLAG-TurboID-UPF3B, Q9BZI7-2 K52D; RR56EE (protein)
chain: MKEEKEHRPKEKRVTLLTPAGATGSGGGTSGDSSKGEDKQDRNKEKKEALSDVVIEELPPTLTKEQLQEHLQPMPEHDYFEFFSNDTSLYPHMYARAYINFKNQEDIILFRDRFDGYVFLDNKGQEYPAIVEFAPFQKAAKKKTKKRDTKVGTIDDDPEYRKFLESYATDNEKMTSTPETLLEEIEAKNRELIAKKTTPLLSFLKNKQRMREEKREERRRREIERKRQREEERRKWKEEEKRKRKDIEKLKKIDRIPERDKLKDEPKIKLLKKPEKGDEKELDKREKAKKLDKENLSDERASGQSCTLPKRSDSELKDEKPKRPEDESGRDYREREREYERDQERILRERERLKRQEEERRRQKERYEKEKTFKRKEEEMKKEKDTLRDKGKKAESTESIGSSEKTEKKEEVVKRDRIRNKDRPAMQLYQPGARSRNRLCPPDDSTKSGDSAAERKQESGISHRKEGGEE
- other: log2 fold change: -1.8
